From US20130195836A1

Target: human macrophage mannose receptor C type 1 (MRC1) (human) (UniProt P22897)
Assay: flow cytometry on stable pool of MRC1-transfected HT1080 cells compared to untransfected HT1080 cells

Chain of UniProt P22897 (P22897 19-1456 limits assumed): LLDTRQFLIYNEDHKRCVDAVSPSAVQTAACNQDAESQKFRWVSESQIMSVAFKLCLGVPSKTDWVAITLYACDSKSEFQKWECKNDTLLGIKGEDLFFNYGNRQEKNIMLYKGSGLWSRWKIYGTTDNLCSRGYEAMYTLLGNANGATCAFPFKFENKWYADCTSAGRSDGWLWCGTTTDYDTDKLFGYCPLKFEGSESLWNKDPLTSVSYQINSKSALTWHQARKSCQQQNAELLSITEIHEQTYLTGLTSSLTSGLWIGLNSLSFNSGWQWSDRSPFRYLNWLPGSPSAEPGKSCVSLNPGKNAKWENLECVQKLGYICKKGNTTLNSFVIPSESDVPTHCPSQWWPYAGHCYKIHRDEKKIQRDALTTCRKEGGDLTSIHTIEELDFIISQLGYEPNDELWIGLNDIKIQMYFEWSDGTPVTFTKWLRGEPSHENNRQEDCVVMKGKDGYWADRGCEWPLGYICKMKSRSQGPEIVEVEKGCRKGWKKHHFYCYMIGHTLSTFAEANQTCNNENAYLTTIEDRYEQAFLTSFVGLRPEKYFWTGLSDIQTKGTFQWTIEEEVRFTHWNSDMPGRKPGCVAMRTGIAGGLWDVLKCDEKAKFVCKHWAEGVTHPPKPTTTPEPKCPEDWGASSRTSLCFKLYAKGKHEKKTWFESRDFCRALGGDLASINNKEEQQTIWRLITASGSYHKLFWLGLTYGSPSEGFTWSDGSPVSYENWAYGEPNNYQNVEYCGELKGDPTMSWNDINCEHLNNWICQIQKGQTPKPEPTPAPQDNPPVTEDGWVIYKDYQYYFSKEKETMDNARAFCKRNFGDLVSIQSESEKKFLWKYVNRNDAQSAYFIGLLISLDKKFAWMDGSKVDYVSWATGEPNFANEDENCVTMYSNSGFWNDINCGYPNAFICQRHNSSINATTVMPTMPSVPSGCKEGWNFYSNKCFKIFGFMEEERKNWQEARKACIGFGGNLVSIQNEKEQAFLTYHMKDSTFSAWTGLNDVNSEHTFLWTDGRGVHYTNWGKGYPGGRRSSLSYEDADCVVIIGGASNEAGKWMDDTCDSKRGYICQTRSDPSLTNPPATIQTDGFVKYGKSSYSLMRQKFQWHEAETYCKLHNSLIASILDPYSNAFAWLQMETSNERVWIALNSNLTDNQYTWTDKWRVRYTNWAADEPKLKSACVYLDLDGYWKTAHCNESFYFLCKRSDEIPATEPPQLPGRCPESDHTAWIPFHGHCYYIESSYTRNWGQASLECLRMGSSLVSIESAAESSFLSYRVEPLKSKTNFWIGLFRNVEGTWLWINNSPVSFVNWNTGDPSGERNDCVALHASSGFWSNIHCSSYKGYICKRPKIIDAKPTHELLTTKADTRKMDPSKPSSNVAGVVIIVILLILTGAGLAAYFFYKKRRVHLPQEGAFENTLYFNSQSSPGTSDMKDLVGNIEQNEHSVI

With “FITC conjugated Mouse anti-human MRC1 antibody (BD Biosciences Cat #551135)” as the substance, how does the Relative Fluorescence Intensity (RFI) above the background read?
Its Relative Fluorescence Intensity (RFI) above the background is 1.5 logs.
